Data as given in US20140086913A1 (Gilead, published 2014).

Biological target: T1, mouse ECD-DDR1-Fc (mouse; human, UniProt Q03146 22-414)
T1 construct: also called mouse DDR1-ECD; wild-type mouse DDR1-ECD; not shown: human IgG1 Fc of the vector pFuse-hIgG1-Fc1 (Invivogen)
T1 sequence: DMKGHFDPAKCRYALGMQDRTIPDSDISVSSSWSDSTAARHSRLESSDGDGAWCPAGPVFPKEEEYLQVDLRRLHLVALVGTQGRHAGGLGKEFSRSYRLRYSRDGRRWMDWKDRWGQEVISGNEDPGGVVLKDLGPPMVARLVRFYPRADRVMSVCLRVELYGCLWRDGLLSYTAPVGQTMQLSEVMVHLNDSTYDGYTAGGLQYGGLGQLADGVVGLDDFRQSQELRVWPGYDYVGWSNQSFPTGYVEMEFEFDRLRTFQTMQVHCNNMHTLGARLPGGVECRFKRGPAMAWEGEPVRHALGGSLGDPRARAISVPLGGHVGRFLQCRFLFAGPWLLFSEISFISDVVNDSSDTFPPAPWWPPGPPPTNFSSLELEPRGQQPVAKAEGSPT
Assay: ELISA, coated antigen
Outline: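 Plates coated overnight at 4° C with 2 μg/mL purified tagged DDR1 ECD protein, BSA-blocked; serially diluted murine anti-DDR1 mAbs bound 1 hr at room temperature, detected with anti-mouse IgG-HRP and TMB (OD 450). Apparent KD taken as C-parameter of 4-parameter logistic fit of OD versus antibody concentration.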

binding result: no binding
B1: AB2041 (antibody, V domains shown)
VH: QVQLHQSGSELAKPGASVKMSCKASGYIFTTYWIHWLKQRPGQGLEWIGFINPDTDYTEYNQKFKDKATLTADKSSNTAYVQLSSLTSEDSAVYYCARGNYGYDGLVYWGLGTLVTVSA
VL: SIVMTQTPKFLLVSAGDRVTITCKASQSVSTDVAWYQQKPGQSPKLLIYYASNRYTGVPDRFTGSGYGTDFTFTISTVQAEDLAVYFCQQDYNSYTFGGGTKLEIKR
notes: mouse hybridoma mAb
